Measurements as given in patent publication US20230002798A1, “PROCESS FOR THE PREPARATION OF A FERMENTABLE SUGAR COMPOSITION AND THE FERMENTATION THEREOF” (WeissBioTech GmbH, priority 2019, published 2023).

B1: Gth: oligo-1,6-glucosidase of Parageobacillus thermoglucosidasius, amino acid sequence SEQ ID NO:2, expressed in Bacillus subtilis (protein, listed as Parageobacillus thermoglucosidasius)
chain: MERVWWKEAVVYQIYPRSFYDSNGDGIGDIRGIIAKLDYLKELGVDVVWLSPVYKSPNDDNGYDISDYRDIMDEFGTMADWKTMLEEMHKRGIKLVMDLVVNHTSDEHPWFIESRKSKDNPYRDYYIWRPGKNGKEPNNWESVFSGSAWEYDEMTGEYYLHLFSKKQPDLNWENPKVRREVYEMMKFWLDKGVDGFRMDVINMISKVPELPDGEPQSGKKYASGSRYYMNGPRVHEFLQEMNREVLSKYDIMTVGETPGVTPKEGILYTDPSRRELNMVFQFEHMDLDSGPGGKWDIRPWSLADLKKTMTKWQKELEGKGWNSLYLNNHDQPRAVSRFGDDGKYRVESAKMLATFLHMMQGTPYIYQGEEIGMTNVRFPSIEDYRDIETLNMYKERVEEYGEDPQEVMEKIYYKGRDNARTPMQWDDSENAGFTAGTPWIPVNPNYKEINVKAALEDPNSVFHYYKKLIQLRKQHDIIVYGTYDLILEDDPYIYAYTRTLGNEQLIVITNFSEKTPVFRLPDHIIYKTKELLISNYDVDEAEELKEIRLRPWEARVYKIRLP
modifications: WP_042386239.1 alpha-glucosidase
B2: Agl1: oligo-1,6-glucosidase of Bifidobacterium breve UCC2003, amino acid sequence SEQ ID NO:1, expressed in Bacillus subtilis (protein)
chain: MMTTFNRAIIPDAIRTNGATPNPWWSNAVVYQIYPRSFQDTNGDGFGDLKGITSRLDYLADLGVDVLWLSPVYKSPQDDNGYDISDYQDIDPLFGTLDDMDELLAEAHKRGLKVVMDLVVNHTSDEHAWFEASKNKDDEHADWYWWRPARPGTTPGEPGSEPNQWGSYFGGSAWEYCPERGEYYLHQFSKKQPDLNWENPAVRRAVYDMMNWWLDRGIDGFRMDVITLISKRTDANGRLPGEYGSELDDLPVGEEGYSNPNPFCADGPRQDEFLKEMRREVFAGREGFLTVGEAPGITPVRNEHITNPANGELDMLFLFDHVDFDCDGVKWKPLPLDLPGFKRIMAGYQTAVENVGWASLFTGNHDQPRVVSRWGDDSSEESRVRSAKALGLMLHMHRGTPYVYQGEELGMTNAHFTSLDQYRDLESLNAYRQRVEEAKVQSPESMLAGIAARGRDNSRTPMQWDGSAYAGFTAPDAATEPWISVNPNHAEINAAGEFDDPDSVYAFYKKLIALRHNSSIVAAGEWQLIDADDAHVYAFTRTLGNERLLVVVNLSGRTVDLPRESTELIAGGVTEPDIILSTYDAPHTVVSLANRELDPWEAAAVQL
modifications: Bifidobacterium breve UCC2003; ACM89182.1 alpha-glucosidase 1

Tests used:
[1] = SSF of maltodextrins with added isomaltotriose, 24 h (Example 1); set-up: species or system Yeast (Deltaferm® AL-18); conditions: SSF 24 h, maltodextrin + 20 g/L isomaltotriose, enzyme 187.5 kU per ton
Description: (§1) Quantification of ethanol yield Ethanol was quantified via HPLC. Samples were taken at the end of the SSF or during SSF at set time points. Samples were centrifuged for 1 min at 17,000 xg and sterile filtered (0.2 μm). The samples were frozen at −80° C. prior to measurements. Ethanol was determined with an Aminex 87C column (Bio-Rad Laboratories, Inc., US) on a Shimadzu HPLC system.
(§2) For simultaneous saccharification and fermentation (abbreviated SSF), the oligo-1,6-glucosidases—either Agl1 or Gth—were used as crude Bacillus extract. Glucidex® Maltodextrin 12 (Roquette, FR) was dissolved in SSF-medium (5 g/L yeast extract, 5 g/L peptone, 1 g/L K2HIPO4, 0.5 g/L Mg2SO4 in 50 mM citrate buffer, pH 4.8) at 300 g/L. Panose, isomaltose, isomaltotriose, maltose, maltotriose, or trehalose was added at 20 g/L. As a positive control, 20 g/L glucose was added instead of the respective sugar. The SSF medium containing starch hydrolysate (maltodextrins) and sugars was sterile filtered (0.2 μm). Yeast (Deltaferm® AL-18, WeissBioTech GmbH, Ascheberg, Germany) was grown in YINaC medium (50 g/L dextrose, 5 g/L yeast extract, 5 g/L peptone, 1 g/L K2HPO4, 0.5 g/L Mg2SO4*7H2O, 2 g/L NH4Cl in 50 mM sodium citrate, pH 4.8) for 2 days at 37° C. and harvested by centrifugation for 15 min at 5100 rpm and 8° C. Pelleted yeast was added to the SSF-medium at a final concentration of 6 g/L. Glucoamylase (Deltazym® GA L-E5, WeissBioTech GmbH, Ascheberg, Germany) was added at 40 g per ton of dry starch equivalent. The enzyme product Agl1 or Gth was added up to a final concentration of 187.5 kU per ton of dry starch equivalent. For the SSF with trehalose, Agl1 or Gth was added at 937.5 kU per ton of dry starch equivalent. As a negative control, an SSF as described above was run without oligo-1,6-glucosidase/enzyme product. The SSF was performed at 30° C. without stirring or shaking for 24 h.

[2] = SSF of commercial liquefied starch with added alpha-amylase, panose content (Example 4); set-up: species or system Yeast (Deltaferm® AL-18); conditions: for reduction in panose compared to control / panose detected: after 60 h SSF; for panose detected: liquefied starch with glucoamylase and alpha-amylase, enzyme 187.5 kU per ton; for panose after 72 h: after 72 h SSF
Description: Residual sugars were quantified via HPLC. Samples were taken at the end of the SSF or during SSF at set time points. Samples were centrifuged for 1 min at 17 000 xg and sterile filtered (0.2 μm). The samples were frozen at −80° C. prior to measurements. Residual sugars were determined with a Zorbax NH2 column (Agilent Technologies, Inc., US) on an Agilent 1200 HPLC system.
For SSF, the enzyme product was used as crude Bacillus extract. Acidified liquefied starch from a commercial plant, containing no detectable amounts of panose, isomaltose, isomaltotriose or trehalose, was brought to pH 4.8. SSF medium components (5 g/L yeast extract, 5 g/L peptone, 1 g/L K2HPO4, 0.5 g/L Mg2SO4 in 50 mM citrate buffer, pH 4.8) were added to liquefied starch (300 g/L). The SSF medium containing starch was sterile filtered (0.2 μm). Yeast (Deltaferm® AL-18, WeissBioTech GmbH, Ascheberg, Germany) was grown in YINaC medium (50 g/L dextrose, 5 g/L yeast extract, 5 g/L peptone, 1 g/L K2HIPO4, 0.5 g/L Mg2SO4*7H2O, 2 g/L NH4Cl in 50 mM sodium citrate, pH 4.8) for 2 days at 37° C. and harvested by centrifugation for 15 min at 5100 rpm and 8° C. Pelleted yeast was added to the SSF at a final concentration of 6 g/L. Glucoamylase (Deltazym® GA L-E10, WeissBioTech GmbH, Ascheberg, Germany) was added at 200 g per ton of dry starch equivalent. Alpha-amylase (Fuelzyme®, BASF) was added at 200 g per ton of dry starch equivalent to simulate non-complete removal of alpha-amylase in industrial processes, which is often the cause for increased non-fermentable sugars. The enzyme product Agl1 or Gth was added to a final concentration of 187.5 kU per ton of dry starch equivalent. As control, no oligo-1,6-glucosidase/enzyme product was added. The SSF was performed at 30° C. without stirring or shaking for 72 h.

[3] = Storage stability (50% v/v glycerol, 4° C.); assay type: physicochemical; conditions: at 4° C., extrapolated from 12 months data
Description: Storage stability was determined by measuring the activity of the enzymes stored in a glass container in a stabilizing formulation (50% v/v glycerol) at 4° C. over a time period of 12 months. […] “Without a loss in activity” is defined as an extrapolated activity of greater than 95% of the initial activity.

[4] = SSF of maltodextrins with added maltotriose, 24 h (Example 1); set-up: species or system Yeast (Deltaferm® AL-18); conditions: SSF 24 h, maltodextrin + 20 g/L maltotriose, enzyme 187.5 kU per ton
Description: as §1, §2

[5] = Lab-scale SSF run with 32% dextrins supplemented with panose; set-up: species or system alcohol yeasts (Deltaferm® AL-18); conditions: 30° C., pH 4.8, 72 h, glucoamylase 415 g/t, yeast 6 g/L

Molecule | ethanol concentration increase by % compared to the negative control [1] [%] | ethanol concentration increase compared to the negative control [1] | reduction in panose compared to control [2] [%] | panose detected [2] [g/L] | panose after 72 h [2] | storage stability without a loss in activity [3] | ethanol concentration increase by % compared to the negative control [4] [%] | ethanol concentration increase compared to the negative control [4] | increase of ethanol yield [5] [%]
B1 | 48 | 0.57 percentage points (v/v) | 57 | 2.3 | completely hydrolysed | 18-24 month | 0 | 0.00 percentage points (v/v) | 2
B2 | 40 | 0.48 percentage points (v/v) | 50 | 2.7 | completely hydrolysed | 18-24 month | 1 | 0.03 percentage points (v/v) | 2
